Source: PMC11897886 (Nucleic Acids Research, 2024)

How the values were obtained:
[1] = biological target: CBP-Upf1-CH-His (S. cerevisiae); assay: SDS-PAGE band identified by Western blotting and mass spectrometry
[2] = biological target: FITC-labeled Dcp2-UBM1 peptide (aa 456-479) (S. cerevisiae) (UniProt P53550); assay: fluorescence polarisation
[3] = biological target: FITC-labeled Dcp2-UBM2 peptide (aa 694-718) (S. cerevisiae) (UniProt P53550); assay: fluorescence polarisation
CBP-Upf1-HD = biological target: T1, CBP-Upf1-HD (S. cerevisiae, UniProt P30771 221-851); assay: pull-down
T1 sequence: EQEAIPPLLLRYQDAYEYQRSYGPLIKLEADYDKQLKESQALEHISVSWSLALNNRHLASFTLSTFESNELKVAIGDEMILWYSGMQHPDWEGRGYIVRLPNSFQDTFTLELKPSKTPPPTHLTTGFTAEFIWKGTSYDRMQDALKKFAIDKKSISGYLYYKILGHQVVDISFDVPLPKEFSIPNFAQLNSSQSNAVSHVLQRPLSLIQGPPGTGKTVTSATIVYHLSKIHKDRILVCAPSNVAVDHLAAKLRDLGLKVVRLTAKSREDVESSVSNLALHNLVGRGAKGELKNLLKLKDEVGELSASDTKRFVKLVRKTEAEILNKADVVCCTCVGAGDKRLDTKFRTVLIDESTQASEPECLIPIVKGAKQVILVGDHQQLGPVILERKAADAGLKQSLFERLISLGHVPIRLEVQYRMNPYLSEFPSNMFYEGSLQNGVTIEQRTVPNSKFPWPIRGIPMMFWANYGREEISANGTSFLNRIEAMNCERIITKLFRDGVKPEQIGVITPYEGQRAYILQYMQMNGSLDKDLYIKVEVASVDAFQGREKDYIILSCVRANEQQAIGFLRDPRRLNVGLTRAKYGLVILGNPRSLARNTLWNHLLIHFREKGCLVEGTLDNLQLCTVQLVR

CBP-Upf1-CH-HD = biological target: T2, CBP-Upf1-CH-HD (S. cerevisiae, UniProt P30771 54-851); assay: pull-down
T2 sequence: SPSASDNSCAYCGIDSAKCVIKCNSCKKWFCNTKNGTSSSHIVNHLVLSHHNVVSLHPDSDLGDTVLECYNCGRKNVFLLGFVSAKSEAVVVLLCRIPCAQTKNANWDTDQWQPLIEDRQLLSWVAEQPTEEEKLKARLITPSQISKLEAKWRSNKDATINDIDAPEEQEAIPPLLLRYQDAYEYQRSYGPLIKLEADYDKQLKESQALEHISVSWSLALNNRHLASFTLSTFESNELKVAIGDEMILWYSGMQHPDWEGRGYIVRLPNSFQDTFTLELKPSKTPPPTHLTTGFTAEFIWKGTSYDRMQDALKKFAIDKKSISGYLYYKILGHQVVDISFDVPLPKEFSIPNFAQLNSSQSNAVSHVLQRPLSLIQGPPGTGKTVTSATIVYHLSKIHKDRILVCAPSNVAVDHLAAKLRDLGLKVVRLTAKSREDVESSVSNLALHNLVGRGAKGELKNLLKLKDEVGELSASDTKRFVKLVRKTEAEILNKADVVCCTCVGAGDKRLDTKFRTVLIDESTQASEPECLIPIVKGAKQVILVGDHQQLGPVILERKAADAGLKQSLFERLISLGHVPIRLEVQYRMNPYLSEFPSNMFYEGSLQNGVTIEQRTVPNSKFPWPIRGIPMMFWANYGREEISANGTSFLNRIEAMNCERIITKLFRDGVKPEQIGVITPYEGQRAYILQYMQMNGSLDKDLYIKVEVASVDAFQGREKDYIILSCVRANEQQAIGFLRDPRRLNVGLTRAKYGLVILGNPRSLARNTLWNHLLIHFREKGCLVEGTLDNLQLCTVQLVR

[4] = biological target: T3, CBP-Upf1-FL (S.c. Upf1 full-length) (S. cerevisiae, UniProt P30771 1-971); assay: pull-down
T3 sequence: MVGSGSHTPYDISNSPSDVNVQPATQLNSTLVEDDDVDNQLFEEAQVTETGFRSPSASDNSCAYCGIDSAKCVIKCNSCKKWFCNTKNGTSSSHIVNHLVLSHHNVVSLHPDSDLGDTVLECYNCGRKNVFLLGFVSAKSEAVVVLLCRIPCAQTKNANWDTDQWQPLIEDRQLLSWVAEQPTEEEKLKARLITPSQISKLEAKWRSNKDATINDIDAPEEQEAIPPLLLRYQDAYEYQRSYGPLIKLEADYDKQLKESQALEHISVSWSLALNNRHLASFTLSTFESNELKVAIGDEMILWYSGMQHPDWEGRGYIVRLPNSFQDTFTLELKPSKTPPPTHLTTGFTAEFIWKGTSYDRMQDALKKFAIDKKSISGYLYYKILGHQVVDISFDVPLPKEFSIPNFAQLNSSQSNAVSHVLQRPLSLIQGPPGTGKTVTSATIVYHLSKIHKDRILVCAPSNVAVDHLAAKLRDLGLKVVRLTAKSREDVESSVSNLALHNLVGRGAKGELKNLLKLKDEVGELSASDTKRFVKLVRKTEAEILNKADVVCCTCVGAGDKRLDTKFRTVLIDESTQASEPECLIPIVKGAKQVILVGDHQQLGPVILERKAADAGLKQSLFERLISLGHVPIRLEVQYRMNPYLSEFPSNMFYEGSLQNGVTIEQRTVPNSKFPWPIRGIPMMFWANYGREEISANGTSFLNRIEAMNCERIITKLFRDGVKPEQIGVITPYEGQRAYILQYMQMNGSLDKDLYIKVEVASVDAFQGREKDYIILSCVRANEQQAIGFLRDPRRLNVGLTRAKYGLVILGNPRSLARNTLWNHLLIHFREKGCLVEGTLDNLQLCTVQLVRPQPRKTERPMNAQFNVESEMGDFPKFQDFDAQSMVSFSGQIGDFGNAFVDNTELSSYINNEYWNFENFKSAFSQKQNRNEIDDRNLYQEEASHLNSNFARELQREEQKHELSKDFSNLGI

CBP-Upf1-HD-Ct = biological target: T4, CBP-Upf1-HD-Ct (S. cerevisiae, UniProt P30771 221-971); assay: pull-down
T4 sequence: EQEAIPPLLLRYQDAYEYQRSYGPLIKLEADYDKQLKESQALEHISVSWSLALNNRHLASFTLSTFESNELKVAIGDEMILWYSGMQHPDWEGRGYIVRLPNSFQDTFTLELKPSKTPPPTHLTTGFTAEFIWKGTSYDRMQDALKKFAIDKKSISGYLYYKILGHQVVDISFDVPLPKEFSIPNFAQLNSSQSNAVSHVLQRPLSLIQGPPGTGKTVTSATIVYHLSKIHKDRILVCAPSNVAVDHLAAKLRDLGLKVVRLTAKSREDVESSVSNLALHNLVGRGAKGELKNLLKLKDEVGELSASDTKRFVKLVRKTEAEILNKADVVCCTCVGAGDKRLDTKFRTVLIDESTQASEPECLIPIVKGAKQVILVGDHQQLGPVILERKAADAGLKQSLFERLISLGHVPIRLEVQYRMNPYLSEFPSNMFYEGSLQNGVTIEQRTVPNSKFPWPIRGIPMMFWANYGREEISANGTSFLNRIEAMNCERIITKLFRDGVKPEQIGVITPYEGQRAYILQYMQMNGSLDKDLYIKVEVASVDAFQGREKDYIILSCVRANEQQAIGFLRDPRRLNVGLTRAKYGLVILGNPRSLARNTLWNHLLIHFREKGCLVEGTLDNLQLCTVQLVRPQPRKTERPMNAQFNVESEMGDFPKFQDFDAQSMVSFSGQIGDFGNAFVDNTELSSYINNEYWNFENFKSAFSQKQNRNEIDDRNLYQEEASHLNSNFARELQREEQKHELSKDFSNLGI

GST-Ebs1 (aa 1-591) = biological target: T5, GST-Ebs1 (aa 1-591) (S. cerevisiae, UniProt Q03466 1-591); assay: pull-down
T5 sequence: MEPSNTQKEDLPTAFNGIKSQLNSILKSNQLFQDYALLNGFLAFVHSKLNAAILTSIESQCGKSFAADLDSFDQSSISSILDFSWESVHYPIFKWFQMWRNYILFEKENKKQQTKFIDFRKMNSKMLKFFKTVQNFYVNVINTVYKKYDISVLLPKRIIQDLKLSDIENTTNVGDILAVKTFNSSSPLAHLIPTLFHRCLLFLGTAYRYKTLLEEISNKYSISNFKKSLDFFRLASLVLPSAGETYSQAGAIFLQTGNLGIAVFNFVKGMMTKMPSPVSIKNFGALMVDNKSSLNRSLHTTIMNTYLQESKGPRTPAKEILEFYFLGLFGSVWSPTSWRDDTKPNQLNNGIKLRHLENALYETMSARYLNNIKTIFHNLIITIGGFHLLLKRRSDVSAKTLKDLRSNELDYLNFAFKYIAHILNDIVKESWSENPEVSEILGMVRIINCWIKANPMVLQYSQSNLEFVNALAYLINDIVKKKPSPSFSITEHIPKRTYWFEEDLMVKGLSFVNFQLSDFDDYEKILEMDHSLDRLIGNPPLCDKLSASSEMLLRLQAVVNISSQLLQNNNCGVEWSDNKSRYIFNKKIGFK

Chain of FITC-labeled Dcp2-UBM1 peptide (aa 456-479) (S. cerevisiae) (P53550 456-479): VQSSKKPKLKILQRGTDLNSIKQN
Chain of FITC-labeled Dcp2-UBM2 peptide (aa 694-718) (S. cerevisiae) (P53550 694-718): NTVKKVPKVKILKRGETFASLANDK

CBP-Upf1-CH-His (domain or fragment)
stoichiometry N [1]: 2
Kd [2]: 60.1 µM
Kd [3]: 25.1 µM

B1: TS-Nmd4-His (full-length Nmd4, aa 1-218) (natural protein)
chain: MTQYNFIIDASAFEKGLGNIKRWCSDCTEAVTLNFYIPTFTLNELDFLQQRRKSFAARESLKFIDRLDDSKFANLKVFIEFPEVLDIILWSDVMEHNDSSGKINIAKLPKRLKNLLKSCIYKCYLEGNEGLHWFLISEDPQIREMAMQCNIPSCSIVDVDSILSKDMNDKSFRESEKFNNMMLKNGTKEESENGREIIRTNFNKTVYASRGTGELWSP
binding result (CBP-Upf1-HD): binds
binding result (CBP-Upf1-CH-HD): binds
binding result [4]: binds
binding result (CBP-Upf1-HD-Ct): binds

B2: CBP-Upf1-Ct (domain or fragment)
chain: PQPRKTERPMNAQFNVESEMGDFPKFQDFDAQSMVSFSGQIGDFGNAFVDNTELSSYINNEYWNFENFKSAFSQKQNRNEIDDRNLYQEEASHLNSNFARELQREEQKHELSKDFSNLGI
binding result (GST-Ebs1 (aa 1-591)): binds

B3: GST-tagged full-length Dcp1 (aa 1-231) (natural protein)
chain: MTGAATAAENSATQLEFYRKALNFNVIGRYDPKIKQLLFHTPHASLYKWDFKKDEWNKLEYQGVLAIYLRDVSQNTNLLPVSPQEVDIFDSQNGSNNIQVNNGSDNSNRNSSGNGNSYKSNDSLTYNCGKTLSGKDIYNYGLIILNRINPDNFSMGIVPNSVVNKRKVFNAEEDTLNPLECMGVEVKDELVIIKNLKHEVYGIWIHTVSDRQNIYELIKYLLENEPKDSFA
binding result (CBP-Upf1-HD): binds
binding result (CBP-Upf1-CH-HD): binds
binding result [4]: binds
binding result (CBP-Upf1-HD-Ct): binds

B4: GST-Dcp1/Dcp2-S heterodimer (complex)
chain 1: B3 chain
chain 2: MSLPLRHALENVTSVDRILEDLLVRFIINCPNEDLSSVERELFHFEEASWFYTDFIKLMNPTLPSLKIKSFAQLIIKLCPLVWKWDIRVDEALQQFSKYKKSIPVRGAAIFNENLSKILLVQGTESDSWSFPRGKISKDENDIDCCIREVKEEIGFDLTDYIDDNQFIERNIQGKNYKIFLISGVSEVFNFKPQVRNEIDKIEWFDFKKISKTMYKSNIKYYLINSMMRPLSMWLRHQRQIKNEDQLKSYAEEQLKLLLGITKEEQIDPGRELLNMLHTAVQANSNNNAVSNGQVPSSQELQHLKEQSGEHNQQK
binding result (CBP-Upf1-HD): binds
binding result (CBP-Upf1-CH-HD): binds
binding result [4]: binds
binding result (CBP-Upf1-HD-Ct): binds
